# Measurements published in patent US20220275067A1 (PROTHENA BIOSCIENCES, published 2022).
# Positions count from the first letter of the chain named. Where no end group is shown, it is not given here. The star is where a group is joined. Biotin = O=C1N[C@H]2[C@H](CS[C@H]2CCCCC(=O)*)N1
# T1: biotinylated 15 amino acid tau peptide, residues 302-316 (human)
# T1 peptide: Biotin-GGGSVQIVYKPVDLS
# T2: biotinylated 15 amino acid tau peptide, residues 383-397 (human)
# T2 peptide: Biotin-KAKTDHGAEIVYKSP
# B1: mouse 14H3 antibody (antibody, mouse IgG2a, V domains shown)
# VH: QVTLKESGPGILQPSQTLSLTCSFSGFSLSTYGMGVGWIRQPSGKGLEWLANIWWDDIKYYNAALKSRLTISKDTSKNQVFLKIASVDTADTATYYCARNVDYWGQGTTLTVSS
# VL: DVVMTQTPLSLPVSLGDQASISCRSSQSLVHSNGNTFLHWYLQKPGQSPKLLIYKVSNRFSGVPDRFSGSGSGTDFTLKISRVEAEDLGVYFCSQSTLVPWTFGGGTKLEIK
# notes: also called m14H3
# B2: mouse 2D11 antibody (antibody, mouse IgG2a, V domains shown)
# VH: EVQLQQSGAELVRPGASVKLSCTASGFNIKDDYMNWVKQRPERGLEWIGWIDPENGDTEYASKFQGKATMTADTSSNTAYLQFSSLTSEDTAVYYCTTSNGWGQGTLVTVST
# VL: DIVMTQAAFSNPVTLGTSASISCRSSKSLLHSNGITYLYWYLQKPGQSPQLLIYQMSNLASGVPDRFSSSGSGTDFTLRISRVEAEDVGVYYCAQNLELPLTFGAGTKLELK
# B3: mouse 17C12 antibody (antibody, mouse IgG2a, V domains shown)
# VH: B2 VH with E1K, V2I, G26A, E59K, F83L, T112A
# VL: DVVMTQTPLTLSVTIGQPASISCTSSQSLLHSNRKTYLHWLLQRPGQSPKLLIYLVSKLESGVPDRFSGSGSGTDFTLKISRVEAEDLGVYYCLQTTHFPRTFGGGTKLEIK
# notes: also called m17C12
# B4: mouse 9F5 antibody (antibody, mouse IgG1, V domains shown)
# VH: B2 VH
# VL: B2 VL
# notes: also called m9F5; murine 9F5
# B5: mouse 10C12 antibody (antibody, mouse IgG2a, V domains shown)
# VH: B2 VH
# VL: B2 VL
# notes: also called m10C12
# B6: mouse 12C4 antibody (antibody, mouse IgG2a, V domains shown)
# VH: B2 VH with K38R, E59A, T91S, T112A
# VL: B2 VL
# notes: also called m12C4
# B7: mouse 12C4 antibody (antibody, mouse IgG2a, V domains shown)
# VH: B2 VH with K38R, E59A, T91S, T112A
# VL: B2 VL
# modifications: here or on the partner: pHrodo label
# Molecular target: T3, recombinant human 4R0N tau (human, UniProt P10636 2-758)
# T3 construct: also called recombinant 4R0N human tau; P10636-6
# Assay: SPR Biacore; antibody captured by anti-mouse antibody; tau as analyte; global 1:1 fit
# Description: Surface plasmon resonance (SPR) analysis using Biacore was performed by immobilizing an anti-mouse (GE Lifesciences) antibody to a CM3 chip with EDC/NHS. Antibodies were then captured to the anti-mouse surface to equivalent levels. Regeneration was performed with 2 30 s injections of 10 mM Glycine pH 1.7. Various concentrations ranging from 500 to 0.122 nM, diluted in […] dilutions, of recombinant human 4R0N tau were flowed over the sensor for a 150s association phase and 300 s dissociation phase. Data was blank subtracted to both an irrelevant sensor not containing test antibody to account for irrelevant binding to the prepared sensor surface, and to the mobile phase vehicle to account for the dissociation of test antibody from the anti-mouse capture. Data was then analyzed with onboard evaluation software using a global 1:1 fit.
# T3 sequence (P10636 other isoform, or with tags, fused parts or gaps limits assumed): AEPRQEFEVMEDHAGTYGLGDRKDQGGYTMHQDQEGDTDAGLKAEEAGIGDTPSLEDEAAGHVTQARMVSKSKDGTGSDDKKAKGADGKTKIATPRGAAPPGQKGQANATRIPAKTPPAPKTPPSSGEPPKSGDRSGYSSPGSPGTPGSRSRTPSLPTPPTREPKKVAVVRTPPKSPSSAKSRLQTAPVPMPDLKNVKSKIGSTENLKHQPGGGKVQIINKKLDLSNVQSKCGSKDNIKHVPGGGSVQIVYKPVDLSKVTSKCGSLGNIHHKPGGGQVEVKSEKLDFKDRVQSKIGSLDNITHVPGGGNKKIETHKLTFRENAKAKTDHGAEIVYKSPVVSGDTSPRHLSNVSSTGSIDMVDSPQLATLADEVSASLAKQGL
Kd [nM],koff [s⁻¹],kon [M⁻¹ s⁻¹],Binder
0.202,0.00153,7.6e+06,B1
0.318,0.00221,6.93e+06,B2
0.482,0.00194,4.03e+06,B3
0.35,0.00224,6.39e+06,B4
0.375,0.00245,6.53e+06,B5
0.363,0.00206,5.69e+06,B6

# Molecular target: T4, human tau oligomers (human, UniProt P10636-6 2-383, limits assumed)
# Assay: cell-based or functional assay
# T4 sequence (P10636 other isoform, or with tags, fused parts or gaps limits assumed): as above
Binder,"MTT viability of primary neurons with tau oligomers, antibody at 0.2 molar equivs","MTT viability of primary neurons with tau oligomers, antibody at 0.33 molar equivs","MTT viability of primary neurons with tau oligomers, antibody at 1 molar equivs","MTT viability of primary neurons with tau oligomers, antibody at 3 molar equivs","MTT viability of primary neurons with tau oligomers, antibody at 5 molar equivs"
B2,52.8 % of control,59.5 % of control,50.9 % of control,64 % of control,92.2 % of control
B4,47.4 % of control,58 % of control,64.9 % of control,92.6 % of control,93.1 % of control
B5,47.1 % of control,51.3 % of control,56.4 % of control,69.2 % of control,86.8 % of control
B6,48.6 % of control,53.2 % of control,62.3 % of control,78.7 % of control,81.1 % of control

# Molecular target: T1, biotinylated 15 amino acid tau peptide, …
# Assay: ELISA, biotinylated peptide on streptavidin plate
# Description: (§1) Peptides contained 15 amino acids, with a 5 amino acid overlap. To enable binding to a streptavidin surface, peptides also contained an N-terminal biotin. Peptides were incubated on a streptavidin-coated plate, and the plate was blocked with 1% BSA in 1× PBS. After washing, antibodies were incubated on the plates for 1 hour at room temperature and washed. Plates were then coated with goat anti-mouse horseradish peroxidase (HRP), and washed. Plates were developed with OPD, and absorbance was read at 490 nm. […]
row,binding result,Binder
1,binds,B1
2,binds,B2
3,binds,B3
4,binds,B4
5,binds,B5
6,binds,B6

# Molecular target: T2, biotinylated 15 amino acid tau peptide, …
# Assay: ELISA, biotinylated peptide on streptavidin plate
# Description: as §1
row,binding result,Binder
1,binds,B1
2,binds,B2
3,binds,B3
4,binds,B4
5,binds,B5
6,binds,B6

# Molecular target: T4, human tau oligomers
# Assay: cell-based or functional assay
# Remark: another data set of the same source
"LDH released by primary neurons with tau oligomers, antibody at 0.2 molar equivs","LDH released by primary neurons with tau oligomers, antibody at 0.33 molar equivs","LDH released by primary neurons with tau oligomers, antibody at 1 molar equivs","LDH released by primary neurons with tau oligomers, antibody at 3 molar equivs","LDH released by primary neurons with tau oligomers, antibody at 5 molar equivs",Binder
177 % of control,148 % of control,131 % of control,109 % of control,115 % of control,B2
155 % of control,152 % of control,116 % of control,95.9 % of control,91.4 % of control,B4
140 % of control,129 % of control,109 % of control,101 % of control,95.1 % of control,B5
153 % of control,152 % of control,124 % of control,110 % of control,108 % of control,B6

# Molecular target: pHrodo-labeled tau P301L soluble oligomer, P10636
# Assay: cell-based or functional assay
# Chain of pHrodo-labeled tau P301L soluble oligomer, P10636 (P10636 other isoform, or with tags, fused parts or gaps P301L P301L): as the sequence (P10636 other isoform, or with tags, fused parts or gaps limits assumed) above
"internalized pHrodo-tau in B103 cells (FACS), antibody at 0.061 µg/mL (% of maximum signal)","internalized pHrodo-tau in B103 cells (FACS), antibody at 0.244 µg/mL (% of maximum signal)","internalized pHrodo-tau in B103 cells (FACS), antibody at 0.98 µg/mL (% of maximum signal)","internalized pHrodo-tau in B103 cells (FACS), antibody at 3.9 µg/mL (% of maximum signal)","internalized pHrodo-tau in B103 cells (FACS), antibody at 15.625 µg/mL (% of maximum signal)","internalized pHrodo-tau in B103 cells (FACS), antibody at 62.5 µg/mL (% of maximum signal)",Binder
78.2,78.6,69.7,42.6,36.6,37.3,B7
